± gives the uncertainty stated by the source.

132 substances from the supplement of paper PMC12042874 can be followed below.

This series is described as follows: amyloid nucleation score (Sup35N fusion, yeast selection) (log enrichment); library NNK3; higher = more nucleation; inactive = no reads after selection. In a few lines:
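The nucleation score equals the log enrichment of output over input reads from DiMSum, centred on the mode score of non-aggregating sequences. It was computed only for sequences with 100 or more input reads. The reads came from Illumina sequencing of plasmid inserts from psi-negative yeast expressing Sup35N fused to peptides of 20 random codons, induced with 100 μM copper sulfate for 24 hours and grown 7 days at 30°C without adenine and uracil.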
EFSYISVCRLQLLMHTKIWD gave an amyloid nucleation score of 1.43 ± 0.14.
On to EFVRVLRDISLVSGVMGYHY, for which the amyloid nucleation score entry is “inactive”.
Next, EFWQFDRYVLSNTVSLFSGC: “inactive”.
For EGCSVRRTTHRAQVMRVGWM, the amyloid nucleation score entry is “inactive”.
With EGFIVSRISAGDRSGDMEGC the entry was “inactive”.
In turn, EGNCELCRLWYNWGRVAGNK displayed an amyloid nucleation score of 0.457 ± 0.2.
On to EHCSGNFRLNLSCDEVHIWM, for which the amyloid nucleation score was found to be 2.99 ± 0.063.
Take EHFNPRNC: the amyloid nucleation score entry was “inactive”.
With EHNNQLGIWSTYPCSNLSGH the entry was “inactive”.
Next, EHNYVSTIGYSCRFEPGTRR: “inactive”; EIGFYCPSGAGGHRKDRVLR: “inactive”; EKCWFQVCCTRSLGKSGIIC: “inactive”.
Take EKGIGYKLCMGQYAGS: the amyloid nucleation score entry was “inactive”.
Consider EKQKSLFCVLMVGLFYVNV, for which the amyloid nucleation score result was “inactive”.
Turning to EKSICWSNFIAWITIWPKGR, the amyloid nucleation score entry is “inactive”.
As for EKTWKDWTHLSGRKRMI, the amyloid nucleation score result is “inactive”.
Next, ELCEKMFRTIFCFKCRVCMN: “inactive”; ELCTVLIVRFSRGSERLKNE: “inactive”; ELFDWTFLFPDSSINMWK: “inactive”.
For ELGGFFNEAGVTNHPIMS, the amyloid nucleation score result is “inactive”.
Turning to ELRCFTQIGLGSCYRFIGYI, the amyloid nucleation score was determined as 0.371 ± 0.74.
Next, ELRELFQNCL: “inactive”; ELRSL: “inactive”.
Next, ELYMQMCYRRIGCV: “inactive”; ENWTDGM: “inactive”; EPYPM: “inactive”.
Regarding EQSLFES, the amyloid nucleation score entry is “inactive”.
ERALPQGMDRWSWFRERSCH: the amyloid nucleation score entry is “inactive”.
With ERIVPA the entry was “inactive”.
For the substance ERKVCAG, the amyloid nucleation score result is “inactive”.
Take ERPSLVEW: the amyloid nucleation score entry was “inactive”.
With ERRKIGLKLLRLRQNNGIMA the entry was “inactive”; with ERSITGYNPPRRV, -0.561 ± 0.82; with ESADATLREAKSSVYKKYRY, “inactive”.
Turning to ESFESVYR, the amyloid nucleation score entry is “inactive”.
With ESRLIISKDGRRSMSKHGGP the entry was “inactive”; with ESRSFCLNCQGWVSSEA, “inactive”; with ESRSRLRNGTLFNCVIN, -0.081 ± 0.5.
Regarding ESVCYLFCYSHYLGNYGYGS, the amyloid nucleation score result is “inactive”.
On to ETHLDTLPVVYHLWLLHVLM, for which the amyloid nucleation score result is “inactive”.
With ETLGFVSMCHDSLMHNH, the amyloid nucleation score entry was “inactive”.
Next, ETLWVKVYLTYLNMTRMSGY: “inactive”.
As for ETNEGPH, the amyloid nucleation score result was “inactive”.
For the substance ETQWFEI, the amyloid nucleation score result was “inactive”.
Next, ETYFAQWLNFL: “inactive”.
Next, EVFEWSVRLFSTL: “inactive”.
For EVFSDVY, the amyloid nucleation score entry is “inactive”.
Consider EVKAMTWLVIVETIVFMS, for which the amyloid nucleation score entry is “inactive”.
Next, EVLNCSR: “inactive”.
Regarding EVQVFSFDTGCMHSHNLYAS, the amyloid nucleation score entry was “inactive”.
As for EVSWD, the amyloid nucleation score result was “inactive”.
With EWPVNTNVYFCFMYTANFNT the figure was 2.63 ± 0.055; with EYCKISD, “inactive”; with EYDSYSKIYWHISLAVFILI, “inactive”.
Next, EYGALSTFLRG: -0.337 ± 0.9; EYHKMTGIFAPLFILIMVV: “inactive”.
Next, EYLPEQPVCIVMSYTPKFPC: “inactive”.
For the substance EYNPWFDCWICSEVSATNNR, the amyloid nucleation score worked out at 1.96 ± 0.077.
Next, EYSLMVNSTIDYFGDSNICE: “inactive”; EYYDI: “inactive”; FAQFLG: “inactive”.
With FARFSIAFMH, the amyloid nucleation score was found to be 0.231 ± 0.9.
FATVYELAYYQGTYCKVRCS: the amyloid nucleation score turned out to be 0.148 ± 0.78.
Substance FAVTLNSWRARFRFMDRNDM registered an amyloid nucleation score of 0.682 ± 0.26.
FAYITHLKKYKSWTVPWTYY: the amyloid nucleation score entry was “inactive”.
With FAYWWRTVTPVCSGLVRYCW the entry was “inactive”.
Next, FCACLERQTSLNF: “inactive”; FCDAKYLRLRSCALISMPSV: “inactive”; FCFSYSYAYFCHIYGCGSNR: -0.281 ± 0.36.
Next, FCFYRKKGVVGCILFYACFR: “inactive”.
As to FCLLIRAVSPCLTSGRIILV, the amyloid nucleation score result was “inactive”.
For FCLVGIFTCRGTLNTLLALH, the amyloid nucleation score result was “inactive”.
For FCMALRKRNFGRFMSKSKEY, the amyloid nucleation score result is “inactive”.
FCNCNMFYDLCLCAHGMPSA yielded an amyloid nucleation score of 2.99 ± 0.067.
With FCRPLSCRSIWCHLLPTHLR the entry was “inactive”; with FCRQGNILFY, “inactive”.
With FCVTQWRAQRASHLYFMPGE the entry was “inactive”; with FDERRSRGPSKSMKGLLTTY, “inactive”; with FDERSF, “inactive”.
Next, FDLFFACFPSRETGLKSCKT: “inactive”; FDLLRSNYYSFRCVCEVIDR: “inactive”.
As for FDLRSWCM, the amyloid nucleation score result is “inactive”.
Next, FDLTWSIVEHFHVWLLRFSF: “inactive”; FDMVFVLENRLYRSMANLSF: “inactive”.
On to FDSQGEPVPKPSAMMRGRMC, for which the amyloid nucleation score entry is “inactive”.
As to FDVIS, the amyloid nucleation score entry is “inactive”.
FDVRCLWYCQK yielded an amyloid nucleation score of 1.33 ± 0.17.
For FECDKENSSLDSPFMLAFKD, the amyloid nucleation score entry is “inactive”.
Next, FECMRELPRAPTKPGSWRHA: “inactive”.
Next, FEDCSTLH: -0.482 ± 0.84.
With FERDMVQ the entry was “inactive”; with FERSMHFENRDSDPCYIVRF, “inactive”; with FEWFQCIYA, “inactive”.
FFAECCRGNKCYMRSKDDQS: the amyloid nucleation score result was “inactive”.
With FFARDVRSN the entry was “inactive”; with FFCKRFYSKFPDQWLAHSVE, “inactive”; with FFCSSTPKSWMCKQTL, “inactive”.
Take FFFTEFFELHIWTKSLPFTS: the amyloid nucleation score entry was “inactive”.
Next, FFFVSSIRIICRV: “inactive”.
With FFFYLPICTLGILYLFDCKA the figure was 0.386 ± 0.2; with FFGFPLV, “inactive”; with FFIDFVGTRCFN, “inactive”.
With FFLTHGCTCEDALKFGWVCY the entry was “inactive”.
The substance FFNIYLVRNSYQKTCAGLTR returned an amyloid nucleation score of 2.05 ± 0.091.
With FFNYIIMEIHFFALLSHRKH the entry was “inactive”; with FFPDGDQTYMA, “inactive”; with FFQESYLGMDLYELSTYNNV, “inactive”.
Take FFRIVSLCSSPGNGEDKDRL: the amyloid nucleation score result was “inactive”.
In the case of FFSCFCLLMRY, the amyloid nucleation score entry is “inactive”.
FFSDRLTSTGSMES: the amyloid nucleation score entry is “inactive”.
Take FFSSGVVRQAYVLVAEDNVS: the amyloid nucleation score result is “inactive”.
With FFSTQAFLDLAHTRFVNPLG the entry was “inactive”.
With FFTMSKI, the amyloid nucleation score entry is “inactive”.
Regarding FFVHRCIYVNGWKGQTHSSQ, the amyloid nucleation score result is “inactive”.
On to FFVLLLFVRVYKIALNFMMG, for which the amyloid nucleation score entry is “inactive”.
Take FFVMCARGHTMRSYTFFVK: the amyloid nucleation score entry was “inactive”.
Regarding FFYSAFENMMMALLKMRKFH, the amyloid nucleation score result was “inactive”.
With FGEVNIAYRMIMRMSGQGGK the figure was 0.998 ± 0.17; with FGEYKMISVEYLVLEIVRYM, “inactive”.
Next, FGFCWLFNLCYLGNVVYAVM: “inactive”.
With FGFYSCTLGG the entry was “inactive”; with FGGAYFVTPGAYFVWYSFLG, 0.222 ± 0.31.
For FGMKTYRLQIGYNITVCHSI, the amyloid nucleation score was -0.603 ± 0.58.
Next, FGNINLCMCFWKMEIECLTR: “inactive”; FGTNVLYAFM: “inactive”.
Regarding FGVSFKYFCVQEQLAKDSVA, the amyloid nucleation score result was “inactive”.
With FGVVWGSKLFCRFGSVTIYP the entry was “inactive”.
Next, FGYPMPIRNVSVVPVLFYKG: “inactive”.
Next, FHEFSTSFWSFEASLLTARL: “inactive”; FHFFYYTLFNCHHGLFTSFF: “inactive”; FHFYGFCLYAYFSAIEDQNC: 2.06 ± 0.071.
Substance FHMFYRFSGDNGPKKFH yielded an amyloid nucleation score of 0.607 ± 0.26.
